The values below come from patent publication US20170216434A1 (WAYNE STATE UNIVERSITY, published 2017).

Test [1] addresses Very late antigen-4 (VLA-4), alpha4beta1 integrin, on the surface of human reticulocytes and mononuclear leukocytes (human) (UniProt P13612). The test can be described thus: cell-based or functional assay.
For test [2] the target is unchanged. In words: flow cytometry saturation binding on isolated RBCs, individual SCD donors. (A flow cytometer gives signals particle by particle.)
The target is the same in test [3]. The test can be described thus: flow cytometry saturation binding on isolated RBCs from 5 SCD donors.
Test [4] has the same target. In words: flow cytometry saturation binding on isolated RBCs (reticulocytes) from 5 SCD donors, one-site binding analysis.
For test [5], the target named is T1, Very late antigen-4 (VLA-4), alpha4beta1 integrin, on the surface of human reticulocytes and mononuclear … (human, UniProt P13612 34-1032; P05556 21-798).
T1 construct: whole, on cells; Endogenous integrin on primary human blood cells; also called α4β1 integrin; a4b1
Described as above. The protocol: Flow cytometry was carried out using the BD FACS Canto II and data analysis was performed with the FACS Diva software. Data for leukocytes was acquired by gating based on forward and side scatter properties and CD45 staining of mononuclear cells. Natalizumab and IgG4 staining of the CD45 positive mononuclear cells were then determined. For erythrocytes, cells were gated for CD235a positive staining and examined for thiazole orange stained reticulocytes. Reticulocyte staining for VLA-4 with either natalizumab or an anti CD29 antibody was then determined and compared to IgG4 or isotype matched control antibody.
Fab arm exchange with endogenous IgG4 in humans, resulting in the production of antibodies that are potentially bispecific (Labrijn AF et al. Nat Biotechnol. 27(8):767-71 2009). This phenomenon has been reported for natalizumab as well, leading to the formation of a monovalent form of the antibody, with only one Fab arm specific for the α-subunit of VLA-4 (Rispens T et al. Anal Biochem. 411(2):271-6 2011; Shapiro RI et al. J Pharm Biomed Anal. 55(1):168-75 2011). To assess the impact of half-antibody exchange of natalizumab on saturation and adhesion of sickle cells, a synthetic monovalent form of natalizumab was used where 1 Fab arm was specific for VLA-4 and the other for CD4. […]

Test [6] concerns the target T1, Very late antigen-4 (VLA-4), …. The test can be described thus: cell-based or functional assay.

B1: synthetic monovalent form of natalizumab where 1 Fab arm was specific for VLA-4 and the other for CD4 (bispecific antibody, part only; not given: anti-CD4 arm and constant regions, V domains shown, not shown: another chain or arm of the molecule; a dimerising Fc or GST)
VH: QVQLVQSGAEVKKPGASVKVSCKASGFNIKDTYIHWVRQAPGQRLEWMGRIDPANGYTKYDPKFQGRVTITADTSASTAYMELSSLRSEDTAVYYCAREGYYGNYGVYAMDYWGQGTLVTVSS
VL: DIQMTQSPSSLSASVGDRVTITCKTSQDINKYMAWYQQTPGKAPRLLIHYTSALQPGIPSRFSGSGSGRDYTFTISSLQPEDIATYYCLQYDNLWTFGQGTKVEIK
What is called EC50 is the concentration needed to bring the measured effect to its halfway point. Low values mean greater potency, high ones weaker potency. For B1, in test [1], the IC50 for inhibition of adhesion of reticulocytes in isolated RBC to VCAM-1 worked out at 0.37 µg/mL, the fold change of adhesion-inhibition IC50 against the divalent form was determined as 19 fold and the potency in blocking reticulocyte adhesion to VCAM-1 against divalent natalizumab (from IC50) was determined as 10 fold. The molecule further came in with a fold change of EC50 against the divalent form in test [2] of 1.7 to 12 fold. The molecule also returned a fold change of EC50 against the divalent form in test [3] of 7 fold. For the same molecule, the EC50 in test [4] was found to be 0.89 µg/mL.

B2: Natalizumab (antibody, V domains shown)
VH: B1 VH
VL: B1 VL
notes: also called divalent natalizumab; divalent form
B2 showed an EC50 in test [5] of 0.14 µg/mL. Moreover, in test [6], the “IC50 for blocking adhesion of whole blood leukocytes to VCAM-1 under flow, adult SCD blood” value was 0.05 µg/mL; the “IC50 for blocking adhesion of whole blood reticulocytes to VCAM-1 under flow, adult SCD blood” value is 0.02 µg/mL; the “IC50 for inhibition of adhesion of reticulocytes in isolated RBC to VCAM-1” value came out at 0.02 µg/mL.
